To fix the notation:
B1: EMD (parent)
chain: YQSKGYNDDYYEESYFTTRTYGEP
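Further: lentivirally expressed fusions sorted by FACS into six bins by GFP to DsRed ratio, PSI derived from sequencing read proportions per bin multiplied by bin number.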

In the series the parent is B1. Kind of series: protein stability index of a GFP-peptide fusion (GPS, HEK-293T) (PSI 1-6); higher = more stable. Conditions: c terminus: a fixed tail appended.
With YQSKGYNDDYYETSYFTTRTYGEP [E13T], the protein stability index was determined as 2.29.

Regarding YQSKGYNDDYYEFSYFTTRTYGEP [E13F], the protein stability index is 3.37.

Regarding YQSKGYNDDYYEHSYFTTRTYGEP [E13H], the protein stability index is 1.47.

On to YQSKGYNDDYYEPSYFTTRTYGEP [E13P], for which the protein stability index stood at 1.74.

On to YQSKGYNDDYYESSYFTTRTYGEP [E13S], for which the protein stability index stood at 2.16.

Regarding YQSKGYNDDYYENSYFTTRTYGEP [E13N], the protein stability index was found to be 1.64.

Consider YQSKGYNDDYYEWSYFTTRTYGEP [E13W], for which the protein stability index worked out at 1.83.

As to YQSKGYNDDYYELSYFTTRTYGEP [E13L], the protein stability index turned out to be 1.93.

With YQSKGYNDDYYEYSYFTTRTYGEP [E13Y], the protein stability index worked out at 1.91.

For YQSKGYNDDYYEMSYFTTRTYGEP [E13M], the protein stability index was found to be 2.68.

As for YQSKGYNDDYYERSYFTTRTYGEP [E13R], the protein stability index amounted to 1.82.

For the variant YQSKGYNDDYYECSYFTTRTYGEP [E13C], the protein stability index came out at 1.53.

In the case of YQSKGYNDDYYEDSYFTTRTYGEP [E13D], the protein stability index was 2.42.

On to YQSKGYNDDYYEISYFTTRTYGEP [E13I], for which the protein stability index was 1.67.

Take YQSKGYNDDYYEGSYFTTRTYGEP [E13G]: the protein stability index was found to be 2.

As to YQSKGYNDDYYEKSYFTTRTYGEP [E13K], the protein stability index is 1.67.

In the case of YQSKGYNDDYYEQSYFTTRTYGEP [E13Q], the protein stability index was found to be 1.87.

Regarding YQSKGYNDDYYEVSYFTTRTYGEP [E13V], the protein stability index was found to be 1.71.

As for YQSKGYNDDYYEASYFTTRTYGEP [E13A], the protein stability index was 1.95.

Take YQSKGYNDDYYEESYHTTRTYGEP [F16H]: the protein stability index is 3.08.

Take YQSKGYNDDYYEESYYTTRTYGEP [F16Y]: the protein stability index stood at 2.28.

As to YQSKGYNDDYYEESYRTTRTYGEP [F16R], the protein stability index stood at 2.69.

As to YQSKGYNDDYYEESYVTTRTYGEP [F16V], the protein stability index was 2.85.

YQSKGYNDDYYEESYCTTRTYGEP [F16C]: the protein stability index was 3.12.

For the variant YQSKGYNDDYYEESYGTTRTYGEP [F16G], the protein stability index came out at 3.26.

For YQSKGYNDDYYEESYTTTRTYGEP [F16T], the protein stability index turned out to be 3.14.

For the variant YQSKGYNDDYYEESYKTTRTYGEP [F16K], the protein stability index is 3.15.

As to YQSKGYNDDYYEESYITTRTYGEP [F16I], the protein stability index was 2.95.

Take YQSKGYNDDYYEESYPTTRTYGEP [F16P]: the protein stability index turned out to be 3.19.

Regarding YQSKGYNDDYYEESYSTTRTYGEP [F16S], the protein stability index worked out at 2.88.

Take YQSKGYNDDYYEESYWTTRTYGEP [F16W]: the protein stability index came to 1.45.

Consider YQSKGYNDDYYEESYLTTRTYGEP [F16L], for which the protein stability index was determined as 3.38.

As to YQSKGYNDDYYEESYQTTRTYGEP [F16Q], the protein stability index worked out at 3.1.

YQSKGYNDDYYEESYATTRTYGEP [F16A]: the protein stability index came out at 3.2.

On to YQSKGYNDDYYEESYNTTRTYGEP [F16N], for which the protein stability index is 3.59.

With YQSKGYNDDYYEESYDTTRTYGEP [F16D], the protein stability index is 3.47.

Consider YQSKGYNDDYYEESYETTRTYGEP [F16E], for which the protein stability index amounted to 3.64.

As to YQSKGYNDDYYEESYMTTRTYGEP [F16M], the protein stability index amounted to 2.91.

Turning to YQSKGYNDDYYEESYFQTRTYGEP [T17Q], the protein stability index was 2.31.

Regarding YQSKGYNDDYYEESYFNTRTYGEP [T17N], the protein stability index worked out at 2.35.

Turning to YQSKGYNDDYYEESYFKTRTYGEP [T17K], the protein stability index worked out at 2.56.

For the variant YQSKGYNDDYYEESYFRTRTYGEP [T17R], the protein stability index was 2.44.

Turning to YQSKGYNDDYYEESYFGTRTYGEP [T17G], the protein stability index was 2.82.

On to YQSKGYNDDYYEESYFETRTYGEP [T17E], for which the protein stability index came to 3.02.

Turning to YQSKGYNDDYYEESYFSTRTYGEP [T17S], the protein stability index was 2.48.

Turning to YQSKGYNDDYYEESYFVTRTYGEP [T17V], the protein stability index is 2.13.

On to YQSKGYNDDYYEESYFMTRTYGEP [T17M], for which the protein stability index was 1.71.

For YQSKGYNDDYYEESYFPTRTYGEP [T17P], the protein stability index stood at 2.4.

YQSKGYNDDYYEESYFCTRTYGEP [T17C]: the protein stability index was 1.96.

Consider YQSKGYNDDYYEESYFDTRTYGEP [T17D], for which the protein stability index worked out at 3.19.

In the case of YQSKGYNDDYYEESYFHTRTYGEP [T17H], the protein stability index is 2.07.

Consider YQSKGYNDDYYEESYFATRTYGEP [T17A], for which the protein stability index was 2.36.

For the variant YQSKGYNDDYYEESYFYTRTYGEP [T17Y], the protein stability index was 2.23.

Turning to YQSKGYNDDYYEESYFWTRTYGEP [T17W], the protein stability index came to 2.15.

On to YQSKGYNDDYYEESYFFTRTYGEP [T17F], for which the protein stability index is 1.85.

On to YQSKGYNDDYYEESYFITRTYGEP [T17I], for which the protein stability index stood at 2.1.

YQSKGYNDDYYEESYFLTRTYGEP [T17L]: the protein stability index was 2.42.

On to YQSKGYNDDYYEEEYFTTRTYGEP [S14E], for which the protein stability index turned out to be 2.83.

For the variant YQSKGYNDDYYEEGYFTTRTYGEP [S14G], the protein stability index is 2.37.

On to YQSKGYNDDYYEELYFTTRTYGEP [S14L], for which the protein stability index came to 2.08.

As for YQSKGYNDDYYEETYFTTRTYGEP [S14T], the protein stability index is 2.38.

On to YQSKGYNDDYYEEIYFTTRTYGEP [S14I], for which the protein stability index was found to be 1.76.

For the variant YQSKGYNDDYYEEKYFTTRTYGEP [S14K], the protein stability index is 2.16.

Turning to YQSKGYNDDYYEEHYFTTRTYGEP [S14H], the protein stability index amounted to 2.13.

As for YQSKGYNDDYYEEYYFTTRTYGEP [S14Y], the protein stability index was determined as 2.28.

As to YQSKGYNDDYYEEWYFTTRTYGEP [S14W], the protein stability index was found to be 2.29.

Consider YQSKGYNDDYYEEVYFTTRTYGEP [S14V], for which the protein stability index was found to be 2.19.

As to YQSKGYNDDYYEEQYFTTRTYGEP [S14Q], the protein stability index turned out to be 2.34.

As for YQSKGYNDDYYEEDYFTTRTYGEP [S14D], the protein stability index worked out at 2.44.

Take YQSKGYNDDYYEEFYFTTRTYGEP [S14F]: the protein stability index worked out at 1.78.

YQSKGYNDDYYEECYFTTRTYGEP [S14C]: the protein stability index is 1.77.

For the variant YQSKGYNDDYYEENYFTTRTYGEP [S14N], the protein stability index worked out at 2.35.

In the case of YQSKGYNDDYYEERYFTTRTYGEP [S14R], the protein stability index was determined as 1.9.

Consider YQSKGYNDDYYEEMYFTTRTYGEP [S14M], for which the protein stability index worked out at 2.26.

Regarding YQSKGYNDDYYEEPYFTTRTYGEP [S14P], the protein stability index turned out to be 2.62.

Consider YQSKGYNDDYYEEAYFTTRTYGEP [S14A], for which the protein stability index is 1.88.

Turning to YQSKGYNDDCYEESYFTTRTYGEP [Y10C], the protein stability index worked out at 2.47.

On to YQSKGYNDDIYEESYFTTRTYGEP [Y10I], for which the protein stability index amounted to 2.52.

For YQSKGYNDDKYEESYFTTRTYGEP [Y10K], the protein stability index was 2.44.

In the case of YQSKGYNDDFYEESYFTTRTYGEP [Y10F], the protein stability index was 2.11.

For YQSKGYNDDTYEESYFTTRTYGEP [Y10T], the protein stability index amounted to 2.5.

As for YQSKGYNDDDYEESYFTTRTYGEP [Y10D], the protein stability index was found to be 2.85.

Regarding YQSKGYNDDRYEESYFTTRTYGEP [Y10R], the protein stability index turned out to be 2.82.

YQSKGYNDDMYEESYFTTRTYGEP [Y10M]: the protein stability index amounted to 2.12.

As for YQSKGYNDDQYEESYFTTRTYGEP [Y10Q], the protein stability index was determined as 2.67.

With YQSKGYNDDSYEESYFTTRTYGEP [Y10S], the protein stability index stood at 2.65.

Regarding YQSKGYNDDLYEESYFTTRTYGEP [Y10L], the protein stability index worked out at 2.18.

Regarding YQSKGYNDDWYEESYFTTRTYGEP [Y10W], the protein stability index was 2.38.

Take YQSKGYNDDEYEESYFTTRTYGEP [Y10E]: the protein stability index came out at 3.04.

Turning to YQSKGYNDDVYEESYFTTRTYGEP [Y10V], the protein stability index was determined as 2.82.

Turning to YQSKGYNDDNYEESYFTTRTYGEP [Y10N], the protein stability index was determined as 2.64.

Turning to YQSKGYNDDGYEESYFTTRTYGEP [Y10G], the protein stability index stood at 2.49.

With YQSKGYNDDHYEESYFTTRTYGEP [Y10H], the protein stability index worked out at 2.45.

As to YQSKGYNDDPYEESYFTTRTYGEP [Y10P], the protein stability index was 2.53.

The values are drawn from the supplement of paper PMC10567573.
